Data on one molecule can be found in paper PMC5959852 (2018).

The experiment has as its target T1, Hif-1α CAD (Homo sapiens, UniProt Q16665).
T1 chain: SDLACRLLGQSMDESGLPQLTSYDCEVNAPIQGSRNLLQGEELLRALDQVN
In words: stopped-flow.

B1: CBP TAZ1 (protein)
chain: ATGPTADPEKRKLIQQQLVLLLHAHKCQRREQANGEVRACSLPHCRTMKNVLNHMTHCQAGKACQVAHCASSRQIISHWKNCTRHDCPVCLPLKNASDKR
In general, Kd refers to the equilibrium constant for the complex coming apart. Read a low Kd as higher affinity. For B1, the Kd stood at 3.4 nM.
